Laboratory results from the supplement of paper PMC10126150.
± gives the standard deviation of the averaged measurements.

Test system: ATP
Assay: switch fluorescence ratio, 500 uM ATP over buffer (Cy3 cluster intensity, sum of 5 cycles each) (fold (ratio)); higher = stronger signal-on switching upon ATP binding; sequences stand for … in TCGTCGGCAGCGTCAGATGTGTATAAGAGACAGTTTTTTTTTTTTTTTTTTTTTTTTT…TC
Details: aptamer strand: ATP DNA aptamer (quencher-CACCTGGGGGAGTATTGCGGAGGAAGG + anchor), 100 nM annealed; ATP concentration: 500 uM
Method in brief: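 Five buffer/ATP imaging cycles were run on Cy3-labelled switching-strand clusters on a modified Illumina MiSeq flow-cell, with NaOH stripping and re-annealing between cycles. In each cycle, clusters annealed to 100 nM quencher-labelled ATP aptamer were imaged in selection buffer, then after 15 min with 500 uM ATP at 22 °C. Per cluster, the fluorescence ratio is summed target-cycle over summed buffer-cycle Cy3 intensity, averaged per switch-domain sequence. Only clusters within 100-1000 RFU were kept.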
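Further: ATP exposure 15 min at 22 °C before imaging.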

Sequence	switch fluorescence ratio
GGGGAGGTTC	1 ± 0.031
GGGGAGTGTT	0.998 ± 0.039
GGGGAGTTAG	1.01 ± 0.013
GGGGATAAGT	1.04 ± 0.054
GGGGATACAG	0.995 ± 0.012
GGGGATATAT	1 ± 0.035
GGGGATATTT	1 ± 0.014
GGGGATCGCG	0.986 ± 0.033
GGGGATGAGA	0.986 ± 0.01
GGGGATGGTA	0.978 ± 0.025
GGGGATGTAC	1.07 ± 0.077
GGGGATGTAG	0.979 ± 0.026
GGGGATGTTA	1.01 ± 0.026
GGGGATGTTT	0.958 ± 0.039
GGGGATTGAG	0.973 ± 0.042
GGGGATTGTT	1 ± 0.033
GGGGATTTCA	0.989 ± 0.024
GGGGATTTGT	0.994 ± 0.034
GGGGCAAAGA	1.02 ± 0.027
GGGGCAAGCG	1.04 ± 0.028
GGGGCAGAAA	1.26 ± 0.45
GGGGCAGGCG	1.07 ± 0.35
GGGGCATAGT	0.991 ± 0.02
GGGGCATGGC	1.02 ± 0.028
GGGGCATTAT	1.06 ± 0.074

Sequence	switch fluorescence ratio
GGGGCCAATT	1.01 ± 0.032
GGGGCCGGGA	1.12 ± 0.19
GGGGCCGGTC	1 ± 0.016
GGGGCGAGTC	1.01 ± 0.1
GGGGCGGACG	0.995 ± 0.047
GGGGCGGGCA	1.03 ± 0.043
GGGGCGGGTG	0.993 ± 0.039
GGGGCGGGTT	1.02 ± 0.04
GGGGCGGTGC	1.03 ± 0.023
GGGGCGGTGT	1.32 ± 0.54
GGGGCGTGTA	0.977 ± 0.029
GGGGCTAGAG	1.4 ± 0.77
GGGGCTAGGG	1 ± 0.032
GGGGCTCTAA	1.01 ± 0.038
GGGGCTGAGT	0.954 ± 0.039
GGGGCTGCGG	0.973 ± 0.052
GGGGCTGGGG	1.01 ± 0.034
GGGGCTGGGT	1.02 ± 0.031
GGGGCTGTCT	1 ± 0.071
GGGGCTTGTG	1.01 ± 0.028
GGGGCTTTTC	1.01 ± 0.027
GGGGGAACGT	1.05 ± 0.037
GGGGGAAGTA	1.041 ± 0.0027
GGGGGAATTA	1.01 ± 0.029
GGGGGACAGG	1.05 ± 0.072

Sequence	switch fluorescence ratio
GGGGGACGGT	1.02 ± 0.017
GGGGGAGAAA	1.02 ± 0.033
GGGGGAGAAC	1.026 ± 0.0019
GGGGGAGAGG	0.99 ± 0.029
GGGGGAGCAG	0.9812 ± 0.0084
GGGGGAGCGT	1 ± 0.03
GGGGGAGGGT	0.997 ± 0.036
GGGGGAGTAC	1.025 ± 0.0084
GGGGGAGTAG	0.983 ± 0.016
GGGGGATACT	1.04 ± 0.037
GGGGGATATT	1.01 ± 0.037
GGGGGATCGC	1.01 ± 0.025
GGGGGATCGT	1.02 ± 0.035
GGGGGATGAA	0.991 ± 0.025
GGGGGATT	0.996 ± 0.02
GGGGGATTAG	0.992 ± 0.022
GGGGGATTAT	0.992 ± 0.044
GGGGGATTCT	1.02 ± 0.011
GGGGGATTGG	0.999 ± 0.032
GGGGGCAGGT	1.03 ± 0.039
GGGGGCATCT	1 ± 0.019
GGGGGCCACG	0.984 ± 0.022
GGGGGCCCGT	1.46 ± 0.69
GGGGGCCCTC	0.985 ± 0.01
GGGGGCCCTG	0.98993 ± 0.0009

Sequence	switch fluorescence ratio
GGGGGCGATT	0.987 ± 0.017
GGGGGCGGCG	1 ± 0.051
GGGGGCGTGG	1 ± 0.043
GGGGGCGTTG	1.01 ± 0.02
GGGGGCTTGA	0.954 ± 0.022
GGGGGGAAAG	0.98 ± 0.029
GGGGGGAAGA	0.994 ± 0.025
GGGGGGAATC	1.01 ± 0.052
GGGGGGACAA	1 ± 0.013
GGGGGGACCG	0.987 ± 0.032
GGGGGGACGA	1.01 ± 0.033
GGGGGGAGGC	0.995 ± 0.028
GGGGGGCAAG	0.9858 ± 0.009
GGGGGGCAAT	1.2 ± 0.099
GGGGGGCAGG	1.03 ± 0.039
GGGGGGCCGC	1.03 ± 0.081
GGGGGGCCTT	1 ± 0.04
GGGGGGCGAT	1.03 ± 0.049
GGGGGGCTGG	0.979 ± 0.025
GGGGGGGAAC	1 ± 0.04
GGGGGGGACT	1 ± 0.034
GGGGGGGATT	1.01 ± 0.025
GGGGGGGCGA	0.987 ± 0.041
GGGGGGGGGC	1.03 ± 0.098
GGGGGGGTAC	1.23 ± 0.62

Sequence	switch fluorescence ratio
GGGGGGGTAG	1 ± 0.021
GGGGGGGTTC	1 ± 0.028
GGGGGGTACT	0.994 ± 0.033
GGGGGGTATC	1.01 ± 0.03
GGGGGGTATG	0.982 ± 0.022
GGGGGGTGCT	1.02 ± 0.03
GGGGGGTTTA	1.01 ± 0.029
GGGGGTAATT	1.1 ± 0.052
GGGGGTACAT	0.99 ± 0.011
GGGGGTAGTA	1.01 ± 0.044
GGGGGTATAT	1.03 ± 0.019
GGGGGTATCA	0.98049 ± 0.00015
GGGGGTATCC	1.03 ± 0.054
GGGGGTCAAT	1.02 ± 0.04
GGGGGTCAGT	0.991 ± 0.01
GGGGGTCGCA	0.947 ± 0.069
GGGGGTGGAA	0.97 ± 0.028
GGGGGTGGAC	1.01 ± 0.052
GGGGGTGTGA	1.02 ± 0.017
GGGGGTTCTA	1.02 ± 0.011
GGGGGTTGAG	1.03 ± 0.024
GGGGTAAAAA	1.01 ± 0.018
GGGGTAAAGT	1.01 ± 0.028
GGGGTAATCT	0.99977 ± 0.00079
GGGGTAATTC	1.06 ± 0.039

Sequence	switch fluorescence ratio
GGGGTACACG	0.979 ± 0.027
GGGGTACACT	0.9949 ± 0.0056
GGGGTAGAAC	0.992 ± 0.028
GGGGTAGAAT	1.03 ± 0.061
GGGGTATCGC	1.002 ± 0.0095
GGGGTATGAC	1.02 ± 0.015
GGGGTATGGT	1 ± 0.036
GGGGTCAGTT	0.973 ± 0.025
GGGGTCCCAG	0.971 ± 0.03
GGGGTCGGTC	1 ± 0.023
GGGGTCGTTT	0.9947 ± 0.0067
GGGGTCTAAA	1.009 ± 0.0063
GGGGTCTTGG	1.03 ± 0.038
GGGGTCTTTT	0.999 ± 0.033
GGGGTGATTG	0.979 ± 0.0077
GGGGTGGATT	0.974 ± 0.013
GGGGTGGCAA	1.008 ± 0.0037
GGGGTGGCCT	1 ± 0.027
GGGGTGGCGT	1.07 ± 0.1
GGGGTGGGAT	0.998 ± 0.016
GGGGTGGGGG	1.01 ± 0.039
GGGGTGGGTC	0.974 ± 0.012
GGGGTGGGTT	0.985 ± 0.036
GGGGTGGTAT	0.99 ± 0.044
GGGGTGGTTT	0.951 ± 0.037

Sequence	switch fluorescence ratio
GGGGTGTGAG	0.989 ± 0.017
GGGGTGTTCT	1.02 ± 0.045
GGGGTGTTGC	0.999 ± 0.056
GGGGTTACTG	0.993 ± 0.034
GGGGTTAGTC	1.02 ± 0.0085
GGGGTTCAAT	0.976 ± 0.044
GGGGTTCATC	0.995 ± 0.022
GGGGTTCGTT	1.01 ± 0.072
GGGGTTGAGT	1.001 ± 0.005
GGGGTTGCCG	0.992 ± 0.034
GGGGTTGCGT	0.996 ± 0.034
GGGGTTGGCA	1.03 ± 0.014
GGGGTTGGCC	0.986 ± 0.018
GGGGTTGTTG	0.988 ± 0.035
GGGGTTTGCC	0.9678 ± 0.0086
GGGGTTTGCG	0.973 ± 0.011
GGGGTTTGGG	0.974 ± 0.028
GGGGTTTGTC	0.95 ± 0.049
GGGGTTTGTG	0.997 ± 0.037
GGGGTTTTCT	1.01 ± 0.016
GGGGTTTTTT	0.986 ± 0.026
GGGTAAAGCT	1.14 ± 0.018
GGGTAAAGTC	0.994 ± 0.047
GGGTAAATTA	0.989 ± 0.042
GGGTAAGAAG	0.971 ± 0.013

Sequence	switch fluorescence ratio
GGGTAATTAG	1.03 ± 0.041
GGGTAATTGG	0.986 ± 0.018
GGGTACAGAT	0.986 ± 0.0099
GGGTACAGCT	1.014 ± 0.0047
GGGTACCGAA	0.981 ± 0.027
GGGTACGGAA	1.106 ± 0.01
GGGTAGAGGG	0.987 ± 0.049
GGGTAGAGGT	1.003 ± 0.0062
GGGTAGATGC	1.01 ± 0.052
GGGTAGGAAG	0.971 ± 0.024
GGGTAGGCGC	1.04 ± 0.029
GGGTAGGGAA	0.998 ± 0.016
GGGTAGGGTG	1.04 ± 0.055
GGGTAGGTGC	1.13 ± 0.044
GGGTAGTCAG	0.995 ± 0.017
GGGTAGTGGT	1.01 ± 0.038
GGGTATACAG	1.01 ± 0.053
GGGTATACCG	1.018 ± 0.0017
GGGTATAGTA	0.973 ± 0.044
GGGTATATGG	1.01 ± 0.022
GGGTATATTG	0.983 ± 0.011
GGGTATCTTG	1 ± 0.003
GGGTATGATG	1.01 ± 0.044
GGGTATTGGG	0.99 ± 0.021
GGGTCAACGT	0.987 ± 0.015
